Reference: the nanobody polyreactivity screen of Harvey et al. (2022)

Test: yeast display, Sf9 membrane polyspecificity reagent, FACS + sequencing; frameworks hold sequencing errors
How it was run: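 Sorting gates, low and high (top ~1%), were placed on anti-HA fluorescence to track expression and on streptavidin fluorescence to track reagent binding. A clone's polyreactivity label is taken from the gate it came out of. The reagent was 10% biotinylated, detergent-solubilized Sf9 membrane, applied for 1 hour at 4 °C to galactose-induced yeast display cells.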

| Sequence | polyreactivity (PSR sort gate) |
| --- | --- |
| QVQLVESGGGLVQAGGSLRLSCAASGRIFKNNAMGWYRQAPGKERELVAAITWRSGRTYYADSVKGRFTISRDNAKNTVYLQMNSLKAEDTAVYYCAKQVFGYGIVNNGDYWGQGTQVTVSS | high polyreactivity |
| QVQLVESGGGLVQAGGSLRLSCAASGRIFKPYVMGWYRQAPGKERELVASITWNGGRTYYADSVKGRFTISRDNAKNTVYLQMNSLKPEDTAVYYCAADYWTTADPRNIIKYDYWGQGTQVTVSS | high polyreactivity |
| QVQLVESGGGLVQAGGSLRLSCAASGRIFKRNAMGWYRQAPGNERELVAAINWSGGSTYYADSVKGRFTISRDTAKNTVYLQMNSLKPEDTAVYYCAALRVQGDYDYWGQGTQVTVSS | high polyreactivity |
| QVQLVESGGGLVQAGGSLRLSCAASGRIFKRNTMGWYRQAPGKERELVAAITRSGGSTHYADSVKGRFTISRDNAKNTVYLQMNSLKPEDTAVYYCAVRAAAIDRLAQFDYWGQGTQVTVSS | low polyreactivity |
| QVQLVESGGGLVQAGGSLRLSCAASGRIFKRYAKGWYRQAPGKERELVAAISGSGGSTSYADSVKGRFTLSRDNAKNTVYLQMNSLKPEDTAVYYCNTTPRFIRSIGQGNYWVQGTQVTVSS | high polyreactivity |
| QVQLVESGGGLVQAGGSLRLSCAASGRIFKRYAMGWSRQAPGKDRELVATITTSGDSTYYADSVKGRFTISRDNAKNTVYLQMNSLKPEDTAVYDCAARSYRGRRYDYWGQGTQVTVSS | high polyreactivity |
| QVQLVESGGGLVQAGGSLRLSCAASGRIFKSNAMGWYRQAPGKEWELVASISRSGSTNYADSVKGRFTISRDNAKNTVYLQMNSLKPEDTAVYYCAKDPDAKGGGYDYWGQGTQVTVSS | low polyreactivity |
| QVQLVESGGGLVQAGGSLRLSCAASGRIFKSYAMGWYRQAPGKERELVAAIRSGGSTYYADSVKGRFTISRDNAKYTVYLQMNSLKPEDTAVYYCNRVTRTWKVTYHYWGQGTQVTVSS | high polyreactivity |
| QVQLVESGGGLVQAGGSLRLSCAASGRIFKSYAMGWYRQAPGKERELVAAISRGGRTNYADSVKGRFTISRDNAKNTVYLQMNSLKPEDTAFYYCAARFVVQGHSSPYDYWGQGTQVTVSS | high polyreactivity |
| QVQLVESGGGLVQAGGSLRLSCAASGRIFKSYAMGWYRQAPGKERELVATISISGGSTYYADSVKGRFTISRDNEKNTVYLQMNSLKPEDNAVYYCNVDFPITEYYYWGNGTQVTVSS | low polyreactivity |
| QVQLVESGGGLVQAGGSLRLSCAASGRIFKSYAMGWYRQAPGKEWELVAAISRGGRTNYADSVKGRFTISRDNAKNTVYLHMHSLKPEDTAVYYCAAYHRDRNSGFDYWGQGTQGTVSS | high polyreactivity |
| QVQLVESGGGLVQAGGSLRLSCAASGRIFKTYAMGWYRQAPGKERELVAAITASGGRTYDADSVKGRFTISRDNAKNTVYLQMNSLTPEDTAVYYSAAPLLRDLRSPYSYNYWGQGTQVTVSS | low polyreactivity |
| QVQLVESGGGLVQAGGSLRLSCAASGRIFKTYAMGWYRQAPGKEREVVAAITAAGGRTYYADSVKGRFTISRDNAKNTVYLQMNSLKPEDTAVYYCAADSGNDYDYWGQGTQVTVSS | low polyreactivity |
| QVQLVESGGGLVQAGGSLRLSCAASGRIFKVNAMVWYRQPPGKERELVAAIRWSGGSTYYADSVKGRFTISRDNAKNTVYLQMNSLKPEDTAVFYCAATWSRRFDYWGQGSQVTVSS | low polyreactivity |
| QVQLVESGGGLVQAGGSLRLSCAASGRIFKWYAMGWSRQAPGKEREFVAGISGSAGRTYYADSVKGRFTISRDNAKNTVYLQMNSLKPEDTAVYYCAKDYNRPVEDWAKVNGYDYWGQGTQVTVSS | low polyreactivity |
| QVQLVESGGGLVQAGGSLRLSCAASGRIFKYNAMGWYRQAPGKERELVAAISGTGGSTYYADSVKGRFTISRDNAKNTVYLQMNSLKPEDTAVYYCAARYYIVSLGSGYWGQGTQVTVSS | high polyreactivity |
| QVQLVESGGGLVQAGGSLRLSCAASGRIFKYNAMGWYRQAPGKERELVAAISWTGVSTHYADSVKGRFTISRDNAKNTVYLQMNSLKPEDTAVYYCAARVGRGVYYHWRDYWGQGTQVTVSS | low polyreactivity |
| QVQLVESGGGLVQAGGSLRLSCAASGRIFKYYAKGWYRQAPGKERELVAAITSSGVSTYADSVKGRFTISRDNAKNTVYLQMNSLKPEDTAVYYCAADYVREGLGYDYWGQGTQVTVSS | low polyreactivity |
| QVQLVESGGGLVQAGGSLRLSCAASGRIFKYYAMGWYRQSPGKERELVAAITSSGGSTYYADSVKGRFTISRDNAKNTVYLQMNRLKPEDTAVYYCAARGPKQLYPGYIYGYWGQGTQVTVSS | low polyreactivity |
| QVQLVESGGGLVQAGGSLRLSCAASGRIFKYYARGWYRQAPGKERELVAAISGSGGTHYADSVKGRFTISRDNAKNTVYLQMNSLKPEDTAVYYCAVRWRGNGQGGSWGQGTQVTVSS | high polyreactivity |

| Sequence | polyreactivity (PSR sort gate) |
| --- | --- |
| QVQLVESGGGLVQAGGSLRLSCAASGRIFKYYTLGWYRQAPGKERELVAAITSRGGTTYYADSVKGRFTISRDNAKNTVYLQMNSLKPEDTAVYDCAKKRVFRHYYYYATYDYWGQGTQVTVSS | low polyreactivity |
| QVQLVESGGGLVQAGGSLRLSCAASGRIFKYYVMGWYRQAPGKERELVAAISSGSGSTYYADSVKGRFTISRDNAKNTVYLQMNSLKPEDTAVYYCNALSSWRRTYGSRYDYWGQGTQVTVSS | high polyreactivity |
| QVQLVESGGGLVQAGGSLRLSCAASGRIFLANAMGWYRQAPGKERELVAAISYSGGSTYYADSVKGRFTISRDNAKNTVYLQMNSLKPEDTAVYYCAADAFTWYTGRAWKYYYWGQGTQVTVSS | low polyreactivity |
| QVQLVESGGGLVQAGGSLRLSCAASGRIFLDYVMGWYRQAPGKEREVVAAISWSGDRTDYADSVKGRFTISLDNAKNTVYLQMNSLKPEDTAVYYCATTWYFAYSDDYKFDYWGQGTQVTVSS | low polyreactivity |
| QVQLVESGGGLVQAGGSLRLSCAASGRIFLGYAMGWYRQAPGKERELVAAITFSGGSTYYADSVKGRFTISRDNAKNTVYLQMNSLKPEDTAVYYCAAPRLRRTYPRNRYDYWGQGTQVTVSS | low polyreactivity |
| QVQLVESGGGLVQAGGSLRLSCAASGRIFLHYAMGWYRQAPGKERELVAAISRSGGSTYYADSVKGRFTISRDNAKNTVYLQMNSLKPEDTAVYYCAAAYPFKTTEGYYYWGQGTQVTVSS | high polyreactivity |
| QVQLVESGGGLVQAGGSLRLSCAASGRIFLKYAMGWYRQAPGKERELVAAISRRGASTYYADSVKGRFTISRDNSKNTVYLQMNSLKPEDTAVYYCKARTSSGMDYWGQGTQVTVSS | high polyreactivity |
| QVQLVESGGGLVQAGGSLRLSCAASGRIFLLNAMGWYRQAPGKERELVAAITSGGTTYYADSVKGRFTISRDNAKNTVYLQMNSLKPEDTAVYYCAAEAGYFTYGRRDYWGQGTQVTGSS | low polyreactivity |
| QVQLVESGGGLVQAGGSLRLSCAASGRIFLLNPMGWNRQATGKERELVARNSSGRTYYADSVKGRFTISRVNAKNTVYLHMKSLKPEDTAVYYCNATVSSSKYRYFYVNPYDYWGQGTQVTVSS | low polyreactivity |
| QVQLVESGGGLVQAGGSLRLSCAASGRIFLRNAMGWYRPAPGKERELVAGISSIGGITYYADSVKGRFTISRDNAKNTVYLQMNILKPEDTAVYYCAKGLYLHTSGHGPYDYWGQGTQVTVSS | low polyreactivity |
| QVQLVESGGGLVQAGGSLRLSCAASGRIFLRNVMGWYRQAPGKERELVAAISARGGSTYYADSVKGRFTISRDNGKNSVYLQMNSLKPEDTAVYYCAAGYPVSPSKYYYWGQGTQVTVSS | high polyreactivity |
| QVQLVESGGGLVQAGGSLRLSCAASGRIFLRYAMGWYRQAPGKEREFVAAISYVGGSTYYADSVKGRFTISRDNAKNTVYLQMNILKPEDTAVYYCNADVPKSLLLYYPWGYGFWGQRTQVTVSS | low polyreactivity |
| QVQLVESGGGLVQAGGSLRLSCAASGRIFLTNAMGWYRQAPGKERELVAAITSGGSTYYADSVKGRFTISRDNAKNTVYLQMNSLKPEDTAVYYCNADTDRYWPYEYDYWGQGSQVTVSS | low polyreactivity |
| QVQLVESGGGLVQAGGSLRLSCAASGRIFLVYAMGWYRQAPGKERELVAAIRSGGSTYYADSVKGRFTISRDNAKNTVYLQMNSLKPEVTAVYYCIADSPWYWVRYGVSRRDYWGQGTQVTVSS | low polyreactivity |
| QVQLVESGGGLVQAGGSLRLSCAASGRIFLWYAMGWYRKAPGKERELVADISSNGGSTRYADSVKGRFAISRDNEKNTVYLQMNILKPEDTAVYYCNADVHWNRYRYGGNGYGYWGQGTQVTVSS | low polyreactivity |
| QVQLVESGGGLVQAGGSLRLSCAASGRIFLWYAMGWYRQAPGKERELVASITRSGVTTYYADSVKGRFTISRDNAKNTVYLQMKSLKPEDTAVYYCNKDFRGDAIKLDVNYWGQGTQVTVSS | low polyreactivity |
| QVQLVESGGGLVQAGGSLRLSCAASGRIFLYNAMGWYRQAPGKERELVAVISSNGGRTYYADSVKGRFTISRDNAKNTVYLQMNSLKPEDTAVYYCAAVQHYVTHMDYWGQGTQVTVSS | low polyreactivity |
| QVQLVESGGGLVQAGGSLRLSCAASGRIFLYNTMGWYRQAPGKERELVARISWSGGSTKYADSVKGRFTISRDNAKNTVYLQMNSLKPEDTAVYYCNAGYFTEYNSWGQGTQVTVSS | high polyreactivity |
| QVQLVESGGGLVQAGGSLRLSCAASGRIFLYYAMGWYRQAPGKERELVATISSGGSTHYADSVKGRFTISRDNAKNTVYLQMNSLKPEDTAVYYCAAYGYGWGLEPSTTEMDYWGQGTQVTVSS | low polyreactivity |
| QVQLVESGGGLVQAGGSLRLSCAASGRIFLYYTMGWYRQAPGKERELDAAITRSGGSTYYADSVKGRFTISRDNAKNTVYLQMNSLKPEDTAVYYCNRAYVRYVPMNYWGQGTQVTVSS | high polyreactivity |
